The target of test [1] is T1, human PACAP38 (human, not fully specified; C-terminal lysine is amidated).
T1 peptide: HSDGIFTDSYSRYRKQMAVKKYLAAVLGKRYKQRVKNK
Kind of test: cell-based or functional assay.

Test [2] deals with T2, human PACAP27 (human, C-terminal leucine is amidated).
T2 peptide: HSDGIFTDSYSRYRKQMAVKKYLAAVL
Kind of test: cell-based or functional assay.

The next test deals with T3, PAC1-R on PC-12 cells (UniProt P32215 20-523).
T3 construct: whole, on cells; Endogenous receptor of PC-12 cells; also called PAC1 receptor; PAC1-R-expressing PC-12 cells
T3 sequence (looked up): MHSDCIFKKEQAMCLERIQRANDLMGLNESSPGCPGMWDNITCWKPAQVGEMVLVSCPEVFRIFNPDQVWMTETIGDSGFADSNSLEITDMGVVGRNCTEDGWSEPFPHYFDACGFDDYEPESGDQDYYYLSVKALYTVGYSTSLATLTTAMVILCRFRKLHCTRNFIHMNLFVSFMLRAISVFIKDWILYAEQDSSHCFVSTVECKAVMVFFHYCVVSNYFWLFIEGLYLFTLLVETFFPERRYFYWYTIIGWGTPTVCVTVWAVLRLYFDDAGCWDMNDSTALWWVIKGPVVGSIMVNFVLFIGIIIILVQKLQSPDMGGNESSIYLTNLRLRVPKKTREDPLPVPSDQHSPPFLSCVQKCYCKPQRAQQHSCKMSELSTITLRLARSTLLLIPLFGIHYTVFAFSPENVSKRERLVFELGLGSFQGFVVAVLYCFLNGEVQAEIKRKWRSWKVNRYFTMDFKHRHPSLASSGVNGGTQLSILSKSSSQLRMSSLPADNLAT
Kind of test: DELFIA TRF cell-surface binding assay: antibody pre-incubated with PACAP38 (200 nM stock mixed 1:1), added to PAC1-R-expressing PC-12 cells, Eu anti-human IgG detection. The protocol: Cells were initially seeded at 1×10⁵ cells/well in a solution of complete RPMI (“cRPMI”: RPMI medium supplemented with 10% sterile heat-inactivated FBS and 1% sterile antibiotic/antimycotic)+10% FBS, and the plates were allowed to incubate overnight at 37° C. On the day of the binding assay, antibodies at an initial concentration of 15 μg/ml were diluted at a 1:3 ratio in DELFIA® binding buffer (50 mM Tris, 150 mM NaCl, 0.1% azide, 2% horse serum) (Perkin-Elmer, Waltham, Mass.) to a total volume of 60 μL in a separate 96 well round bottom plate. PACAP38 was prepared for the binding assay by diluting it in DELFIA® binding buffer to a concentration of 200 nM, and then 60 μl of the diluted PACAP38 was added to each of the antibody-containing wells to form antibody:antigen complexes. Following addition of PACAP38, the antibody:antigen complexes were incubated at room temperature on a shaker for 1 hour. […]
DELFIA® Europium labeled anti-human IgG detection reagent (Cat #1244-330, Perkin-Elmer, Waltham, Mass.) was diluted to a concentration of 300 ng/ml in DELFIA® Binding Buffer. […] The plates were then read (TRF, excitation 330 nm, emission 620 nm) on a SPECTRAMAX® (Molecular Devices, Sunnyvale, Calif.) plate reader.

The target of test [3] is T1, human PACAP38. Kind of test: cell-based or functional assay.
Test [4] concerns the target T1, human PACAP38. Kind of test: cell-based or functional assay.
Test [5] concerns the target T1, human PACAP38. Kind of test: SPR (ProteOn XPR36), antibody amine-coupled to chip, PACAP38 as analyte 1.23-100 nM, 1:1 Langmuir fit. As for the experimental part:
Binding affinities of monoclonal antibodies for human PACAP were estimated using SPR on the PROTEON™ XPR36 (Bio-Rad, Hercules, Calif.). Antibody was immobilized to the surface of general amine coupling (“GLC” or “GLM”) Chips (Bio-Rad, Hercules, Calif.). A dilution series of human PACAP38 (SEQ ID NO: 1241) prepared in 1×PBST Buffer (4.3 mM Na Phosphate, 1.4 mM K Phosphate, 135 mM NaCl, 2.7 mM KCl 0.05% Polysorbate-20) purchased from Teknova (Cat# P1192, Teknova, Hollister, Calif.) and supplemented with 0.25 M arginine (from J. T. BAKER®), 0.2 mg/ml BSA (Jackson Immuno Research Labs, West Grove, Pa.), and 0.005% sodium azide (VWR International, Radnor, Pa.) with the pH adjusted to 7 was used to query the antibodies. Antigen (ranging from 1.23 nM to 100 nM) was typically run sequentially with association times of 2-4 minutes and dissociation times of 3-120 minutes grouped with the PROTEON™ Manager Software (v3.1.0.6 (Bio-Rad, Hercules, Calif.)) and fitted using a 1:1 Langmuir binding model. Surfaces were regenerated between analyte queries using 0.85% Phosphoric Acid.

Test [6] has as its target T2, human PACAP27. Kind of test: SPR (ProteOn XPR36), antibody amine-coupled to chip, PACAP27 as analyte 1.23-1000 nM.

We go through four molecules from patent US20160304604A1 (H LUNDBECK A S, published 2016).

B1: Ab10 (antibody, human IgG1, kappa, N297A, V domains shown)
VH: QSVEESGGRLVTPGTPLTLTCTVSGIDLNSYYMTWVRQAPGKGLEWIGFIDAGGDAYYASWAKGRFTISKTSTTVDLKITSPTTEDTATYFCARDLDLWGQGTLVTVSS
VL: AAVLTQTPSPVSAAVGGTVTINCQSSESVYGNYLAWFQQKPGQPPKLLIYEASKLESGVPSRFSGSGSGTQFTLTISDLQCDDAATYYCAGGDISEGVAFGGGTEVVVKR
notes: also called anti-PACAP antibody Ab10
B1: in the test with human PACAP38 [1], the “Inhibition of 0.1 nM PACAP38-induced PAC1-R mediated cAMP increase IC50 (PC-12 cells, HTRF)” value worked out at 0.18 nM. The “Inhibition of 0.1 nM PACAP27-induced PAC1-R mediated cAMP increase IC50 (PC-12 cells, HTRF)” value with human PACAP27 [2] is 0.227 nM. Besides, the binding result with PAC1-R on PC-12 cells is “no binding (tested: about 5000 nM (last point as drawn))”. Besides, in the test with human PACAP38 [3], the “Inhibition of 1 nM PACAP38-induced human VPAC2-R mediated cAMP increase IC50 (CHO-K1 cells, HTRF)” value worked out at 0.189 nM. In the test with human PACAP38 [4], the “Inhibition of 5 nM PACAP38-induced human VPAC1-R mediated cAMP increase IC50 (CHO-K1 cells, HTRF)” value turned out to be 0.649 nM.

B2: Ab21 (antibody, human IgG1, kappa, N297A, V domains shown)
VH: QSVEESGGRLVTPGTPLTLTCTVSGIDLSSYYMTWVRQAPGKGLEWVGFIDAGGSAYYATWAKGRFTISKASTTVDLKITSPTTEDTATYFCARDLDLWGPGTLVTVSS
VL: AAVLTQTPSPVSAAVGGTVSISCKSSESVYGDYLAWFQQKPGQPPKQLIYDASTLASGVPSRFKGSGSGTQFTLTISGVQCDDAATYYCAGGYVSAGVAFGGGTEVVVKR
On to B2, for which, in the test with human PACAP38 [1], the “Inhibition of 0.1 nM PACAP38-induced PAC1-R mediated cAMP increase IC50 (PC-12 cells, HTRF)” value came out at 0.239 nM. Besides, the “Inhibition of 0.1 nM PACAP27-induced PAC1-R mediated cAMP increase IC50 (PC-12 cells, HTRF)” value with human PACAP27 [2] was 0.14 nM. For the same molecule, in the test with human PACAP38 [3], the “Inhibition of 1 nM PACAP38-induced human VPAC2-R mediated cAMP increase IC50 (CHO-K1 cells, HTRF)” value stood at 5.21 nM. Moreover, the “Inhibition of 5 nM PACAP38-induced human VPAC1-R mediated cAMP increase IC50 (CHO-K1 cells, HTRF)” value with human PACAP38 [4] came to 2.85 nM.

B3: Ab20 (antibody, human IgG1, kappa, N297A, V domains shown)
VH: QSVEESGGRLVTPGTPLTLTCTVSGIDLSSYYMSWVRQAPGKGLEWIGFIDTDGSAYYATWAKGRFTISKTSTTVDLKITSPTTEDTATYFCARDLDLWGPGTLVTVSS
VL: AAVLTQTPSPVSAAVGGTVSISCQSSESVYSNYLAWFQQKPGQPPKFLIYEASKLASGVPSRFKGSGSGTQFTLTISDVQCDDAGTYYCAGGYSSEGVAFGGGTEVVVKR
As for B3, in the test with human PACAP38 [1], the “Inhibition of 0.1 nM PACAP38-induced PAC1-R mediated cAMP increase IC50 (PC-12 cells, HTRF)” value came to 0.368 nM. In addition, the “Inhibition of 0.1 nM PACAP27-induced PAC1-R mediated cAMP increase IC50 (PC-12 cells, HTRF)” value in the test with human PACAP27 [2] came out at 0.188 nM. The “Inhibition of 1 nM PACAP38-induced human VPAC2-R mediated cAMP increase IC50 (CHO-K1 cells, HTRF)” value with human PACAP38 [3] amounted to 14.6 nM. The “Inhibition of 5 nM PACAP38-induced human VPAC1-R mediated cAMP increase IC50 (CHO-K1 cells, HTRF)” value with human PACAP38 [4] was 3.89 nM.

B4: Ab21.H (antibody, V domains shown)
VH: EVQLVESGGGLVQPGGSLRLSCAASGIDLSSYYMTWVRQAPGKGLEWIGFIDAGGSAYYATWAKGRFTISRDNSKNTVYLQMNSLRAEDTAVYFCARDLDLWGQGTLVTVSS
VL: DAQLTQSPSTLSASVGDRVTITCKSSESVYGDYLAWFQQKPGKAPKQLIYDASTLASGVPSRFSGSGSGTEFTLTISSLQPDDFATYYCAGGYVSAGVAFGGGTKVEIKR
Regarding B4, in the test with human PACAP38 [5], the Kd came to 0.021 nM and the koff was found to be 1e-05 s⁻¹. Also, the “Inhibition of 0.1 nM PACAP38-induced PAC1-R mediated cAMP increase IC50 (PC-12 cells, HTRF)” value with human PACAP38 [1] is 0.246 nM. Also, the “Inhibition of 0.1 nM PACAP27-induced PAC1-R mediated cAMP increase IC50 (PC-12 cells, HTRF)” value with human PACAP27 [2] came out at 0.204 nM. In the test with human PACAP38 [3], the “Inhibition of 1 nM PACAP38-induced human VPAC2-R mediated cAMP increase IC50 (CHO-K1 cells, HTRF)” value turned out to be 1.51 nM. Moreover, the “Inhibition of 5 nM PACAP38-induced human VPAC1-R mediated cAMP increase IC50 (CHO-K1 cells, HTRF)” value with human PACAP38 [4] came out at 2.1 nM. In the test with human PACAP27 [6], this molecule gave an equilibrium dissociation constant (Kd) of 0.016 nM and an off-rate (koff) of 1e-05 s⁻¹.

The Kd is the equilibrium constant for the complex coming apart. High values mean a looser complex, low ones a tighter complex. As a reminder, the koff is the first-order rate constant of dissociation.
